Target: ANTXR1, Q9H6X2-2
Sequence (Q9H6X2 other isoform, or with tags, fused parts or gaps): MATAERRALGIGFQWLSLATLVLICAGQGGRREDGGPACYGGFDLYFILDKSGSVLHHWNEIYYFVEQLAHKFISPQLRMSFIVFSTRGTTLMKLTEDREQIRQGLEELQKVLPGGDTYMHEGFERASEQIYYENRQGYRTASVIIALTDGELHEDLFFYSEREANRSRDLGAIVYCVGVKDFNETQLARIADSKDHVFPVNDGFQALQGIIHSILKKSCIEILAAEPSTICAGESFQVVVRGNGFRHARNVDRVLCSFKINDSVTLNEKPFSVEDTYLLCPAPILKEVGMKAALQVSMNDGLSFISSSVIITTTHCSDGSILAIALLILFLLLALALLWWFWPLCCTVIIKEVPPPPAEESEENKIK

## Protective antigen (Bacillus anthracis) (from UniProt P13423) D712N
  effect of a mutation on the interaction: decreasing interaction

Source: IntAct's records for PubMed 14507921
